Measured values published in the supplement of paper PMC12042874.
± gives the uncertainty stated by the source.

Experiment: amyloid nucleation score (Sup35N fusion, yeast selection) (log enrichment); library NNK3; higher = more nucleation; inactive = no reads after selection
Method in brief: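 Nucleation score: DiMSum log enrichment of output over input reads, centred on the mode score of non-aggregating sequences. Only sequences with at least 100 input reads were kept. Reads came from Illumina sequencing of plasmid inserts before and after 7 days of growth at 30°C without adenine and uracil, in psi-negative yeast expressing Sup35N fused to peptides of 20 random codons after 24 hours of induction with 100 μM copper sulfate.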

Substance	amyloid nucleation score
AAAMVKAMIDVITGKIPVAE	inactive
AAETLTRSWLLRSARLMKDG	-0.233 ± 1.4
AAFAREDRCSLLVWYSTCWD	inactive
AAHCYNGVLKGVI	inactive
AAKYFCNCRGYFAPRLKC	inactive
AALHKRTAAQNVPKELGLTM	0.227 ± 0.63
AALVGLRCIAWNYCDTRKRI	inactive
AAMKGKSTHPHKGSFSLAIA	inactive
AARISRGVPWYGQEMKGRVR	inactive
AASNTAFNYLSTRPIMRWLA	inactive
ACKLIEFSSQQVFVGFGVHA	inactive
ACLCNNCLSLNPTWSCFLCL	2.41 ± 0.087
ACSRKISSIVATSRLVSTSG	inactive
ADCNWVNNVMSVKGLMSVVM	inactive
ADGWFEIFKGYSAPGAHSVL	-0.48 ± 1.1
ADLATYLTDLTERDAILSPP	0.424 ± 0.39
ADLPVIHNNKRLVVVWHWLN	inactive
ADMCPVDRRVLDLVSKRAMS	inactive
ADRVSVIYMS	inactive
AEHHYAFAFTEF	inactive
AFCNTIETDMNSAPVFLRAA	inactive
AFGLTVFE	inactive
AFGLVLLSTLHNASIIPRWF	inactive

Substance	amyloid nucleation score
AFGYKFGSANEAVRMLLSLV	inactive
AFKECARRR	inactive
AFLACLRLKDLDVVFRSPNR	inactive
AFPTVLLHWRN	inactive
AFTCYELAGIWRNVTVPCYL	inactive
AFYDNWKGNG	0.141 ± 0.35
AGFLRDLMCDHLEDDGVPAV	inactive
AGKDSPGTDHGGGKNNVRV	inactive
AGKHFAHSGLFLVCNYTSRT	inactive
AGKYIQNYEVKGCLSAYRAG	inactive
AGLLDMARSVDCSGLGYGFF	-0.82 ± 1
AGRDIIMYNRAWFNISAA	inactive
AGVNLRTIRVMYRLPIISYL	inactive
AGYNYASKSNTLESQTACCS	inactive
AHLLETMDTREVFKIR	inactive
AIALLSPSDYVHSLGFHMVA	inactive
AIAWYLLLHSRRMIWCINCP	inactive
AIGRTCGKYMYSFGGLHSSH	inactive
AIGYLCSALAKVSLFGKWSV	inactive
AIHTSPLIIPPNRFVRYRNR	inactive
AILLWNCLHSSVSLLKKAYS	-0.518 ± 1.4
AILYTRHG	0.082 ± 0.38
AIPSMSSRTLNQVSPIDPDL	0.706 ± 0.17

Substance	amyloid nucleation score
AIVIRLNSVYYYGCGWLLNR	inactive
AIWLCCQLLLM	2.63 ± 0.066
AKICLFV	inactive
AKPIRSSGMFVCTAVYEYVF	inactive
AKSVSLHIPTCRYHLTYIAF	inactive
AKTSYQRN	inactive
AKVQWAV	-0.106 ± 0.43
ALARELIFLLCMNVRLMGFK	inactive
ALASGVVVKLDICIVNNRMY	3.11 ± 0.073
ALCGNHLKCYKYSGAWRAV	inactive
ALEAFKRFNLYELGCKGIKV	inactive
ALEFRSTENTSSSG	-0.223 ± 0.73
ALFLACNH	1.59 ± 0.095
ALHWKGLQT	inactive
ALMRYVFPKWRDCAAMWDSL	inactive
ALPPSVF	inactive
ALQLRVPDDVWLYVCYSRMN	inactive
ALRGWILWW	inactive
ALSHKVAVYVYC	inactive
ALTAYLVNVWSKYTGMLFSC	inactive
ALTWMRMYALCNIEVNHYST	2.07 ± 0.066
ALYNCSCQDNGVQFNK	inactive
AMHHSNRSKPVSVIRWMWRC	inactive

Substance	amyloid nucleation score
AMPMATLTVPMWLLILFVTF	inactive
ANCINRV	inactive
ANHCLCRGSKYLRKRVNLAI	inactive
ANKSTIGLFMRLPYCPGSN	-0.148 ± 0.96
ANKYASRFVYSISDLSWTIW	inactive
ANRLC	inactive
ANSDCLFARFDRLFDVSVED	-0.295 ± 0.71
ANYVYNQTVMCS	inactive
APAEIFDLLKSMNGTLCRMG	inactive
APHLFLARYLYVCLYCENEW	1.25 ± 0.11
APIWVFRAYLVFL	inactive
APKVQGDCRNTGCAPMVHKK	inactive
APVCQWATKARIKCAHWRRT	inactive
APWVMLVVSFPRKESRSFGM	inactive
AQGKSRPYPLSNSPSGVRRS	inactive
AQSEAGDF	inactive
AQTYSMCFNITKHPYNSMCG	inactive
ARDNDLLNCMMLGLFSRLAF	inactive
ARHVLAGCKRMLYHFEGRVG	-0.643 ± 1.3
ARLSLWS	0.733 ± 0.31
ARTGYNGYQFRSGRALEITG	inactive
ARVRFSLKRSCMLVHA	inactive
ASARRCVSVVLIHTAKIHRN	inactive

Substance	amyloid nucleation score
ASASY	inactive
ASCQSSIVFRTGSSLATLCD	inactive
ASDSCGG	inactive
ASGVPIADYTNTLKRWWLSE	inactive
ASHYTVSFFSENDAHRGACR	inactive
ASIGIRFVDCLYSVLRRWMF	inactive
ASNYDYVYMPTWDKDRFSRY	inactive
ASNYYKCCCSNWLCCLMSDR	2.91 ± 0.066
ASPTQVNYFTLVKCMVLRTT	inactive
ASSKCYINKRSNPGRRGLYG	inactive
ASSLMQ	inactive
ASSSQGRDYVCMSYNFIGGV	-0.551 ± 0.55
ASVRTYVDTNHYNLAEILRL	inactive
ASYLNYSFVKIETAVSSNPC	0.609 ± 0.11
ATCLLIGFGPWMSPAG	inactive
ATDKV	inactive
ATIGRVRGLKDPHLYQCAFM	inactive
ATPFGWDHN	inactive
ATQLCCIVCRGLGPGMGEES	inactive
ATTDGTVSCVYPRFRLFWCI	inactive
AVGLRRPLCMYF	inactive
AVICYS	inactive
AVINVILIIVSECRNSN	1.9 ± 0.075

Substance	amyloid nucleation score
AVISNRFYEEKLYDATYLRL	inactive
AVLEMQLTIW	inactive
AVQYPSVCWNYKSNSMHC	inactive
AVRFNHAYISQKPQRMLL	inactive
AVTDLDIFICSG	inactive
AVTKNVTERFHMLMPKDWVG	inactive
AVYCPINLLAF	inactive
AVYQLDMCDLVMVSLDGTVR	inactive
AWGSVYVALVWRWNFRCVR	inactive
AWSDPSDQQPEQLRVVVDFL	inactive
AYIMDSSWWV	inactive
AYLIRIGVIRLFLTLCCG	inactive
AYLSFLLFCCCKTLVWLVLR	0.841 ± 0.13
AYLSSTSANF	inactive
AYMKGVWFRDEKDISFLIWI	inactive
AYNFEHFPDETSAQGHVY	inactive
AYRSKLKLCSYWIMGCVHPL	inactive
AYVLARFLEDFFMILLWDRW	inactive
CADFFQDCAHKIFKNNRITG	inactive
CAFPVDGRGTIVVFRHVLEG	inactive
CAKDMMCRVYMSLLLHLGVD	inactive
CANQGGCIICDATYQCVIIA	0.649 ± 0.14
CCACWGINHSYGLSTEVSQY	inactive

Substance	amyloid nucleation score
CCFHLFTYCKGKARYTLWSV	inactive
CCGEHRVGQWV	0.157 ± 0.27
CCIIYVVRRGE	1.28 ± 0.096
CCLEILGTLFN	inactive
CCMVYGGYMM	inactive
CCRFAVLRRLERSDQKGVWI	inactive
CCTSA	inactive
CCWYPYEYIINYASVTSQFP	1.56 ± 0.066
CDEVLTDKLVWGREFILWSD	inactive
CDFREVTLDY	inactive
CDGNMVGSTAIPVSFFPFGR	inactive
CDGPMSYMGLGTAGKR	inactive
CDLDLLHGWCGNKRMGSCGR	inactive
CDLMAKGSCIEQPQPSVAGK	inactive
CDVSGSCPGRSPARLKEGSR	inactive
CEEPFLNCHFLDY	inactive
CELGNIVHS	inactive
CEQDTCFIHISRYTTVNNTM	inactive
CEQQSRYHMKFMPASLLSFK	inactive
CESRP	inactive
